Target: actin filaments (F-actin) (UniProt P68135 1-377)
Assay: co-sedimentation

B1: Coronin 1B (recombinant) (natural protein)
chain: MSFRKVVRQSKFRHVFGQPVKNDQCYEDIRVSRVTWDSTFCAVNPKFLAVIVEASGGGAFLVLPLSKTGRIDKAYPTVCGHTGPVLDIDWCPHNDEVIASGSEDCTVMVWQIPENGLTSPLTEPVVVLEGHTKRVGIIAWHPTARNVLLSAGCDNVVLIWNVGTAEELYRLDSLHPDLIYNVSWNHNGSLFCSACKDKSVRIIDPRRGTLVAEREKAHEGARPMRAIFLADGKVFTTGFSRMSERQLALWDPENLEEPMALQELDSSNGALLPFYDPDTSVVYVCGKGDSSIRYFEITEEPPYIHFLNTFTSKEPQRGMGSMPKRGLEVSKCEIARFYKLHERKCEPIVMTVPRKSDLFQDDLYPDTAGPEAALEAEEWVSGRDADPILISLREAYVPSKQRDLKISRRNVLSDSRPAMAPGSSHLGAPASTTTAADATPSGSLARAGEAGKLEEVMQELRALRALVKEQGDRICRLEEQLGRMENGDA
B1 was tested, and the IC50 was 74 nM.
